Data as given in ChEMBL document CHEMBL4402607, “Molecular Basis for Omapatrilat and Sampatrilat Binding to Neprilysin-Implications for Dual Inhibitor Design with Angiotensin-Converting Enzyme” (J Med Chem, 2020).

Substrate: N=C(N)NCCC[C@H](NC(=O)[C@H](Cc1ccccc1)NC(=O)[C@@H]1CCCN1C(=O)[C@H](CO)NC(=O)[C@H](Cc1ccccc1)NC(=O)CNC(=O)[C@@H]1CCCN1C(=O)[C@@H]1CCCN1C(=O)[C@@H](N)CCCNC(=N)N)C(=O)O
Assay: Substrate activity at human ACE expressed in CHO cells by HPLC analysis
Type: cell-based

B1: Angiotensin-converting enzyme (Homo sapiens), P12821 (protein)
chain: MGAASGRRGPGLLLPLPLLLLLPPQPALALDPGLQPGNFSADEAGAQLFAQSYNSSAEQVLFQSVAASWAHDTNITAENARRQEEAALLSQEFAEAWGQKAKELYEPIWQNFTDPQLRRIIGAVRTLGSANLPLAKRQQYNALLSNMSRIYSTAKVCLPNKTATCWSLDPDLTNILASSRSYAMLLFAWEGWHNAAGIPLKPLYEDFTALSNEAYKQDGFTDTGAYWRSWYNSPTFEDDLEHLYQQLEPLYLNLHAFVRRALHRRYGDRYINLRGPIPAHLLGDMWAQSWENIYDMVVPFPDKPNLDVTSTMLQQGWNATHMFRVAEEFFTSLELSPMPPEFWEGSMLEKPADGREVVCHASAWDFYNRKDFRIKQCTRVTMDQLSTVHHEMGHIQYYLQYKDLPVSLRRGANPGFHEAIGDVLALSVSTPEHLHKIGLLDRVTNDTESDINYLLKMALEKIAFLPFGYLVDQWRWGVFSGRTPPSRYNFDWWYLRTKYQGICPPVTRNETHFDAGAKFHVPNVTPYIRYFVSFVLQFQFHEALCKEAGYEGPLHQCDIYRSTKAGAKLRKVLQAGSSRPWQEVLKDMVGLDALDAQPLLKYFQPVTQWLQEQNQQNGEVLGWPEYQWHPPLPDNYPEGIDLVTDEAEASKFVEEYDRTSQVVWNEYAEANWNYNTNITTETSKILLQKNMQIANHTLKYGTQARKFDVNQLQNTTIKRIIKKVQDLERAALPAQELEEYNKILLDMETTYSVATVCHPNGSCLQLEPDLTNVMATSRKYEDLLWAWEGWRDKAGRAILQFYPKYVELINQAARLNGYVDAGDSWRSMYETPSLEQDLERLFQELQPLYLNLHAYVRRALHRHYGAQHINLEGPIPAHLLGNMWAQTWSNIYDLVVPFPSAPSMDTTEAMLKQGWTPRRMFKEADDFFTSLGLLPVPPEFWNKSMLEKPTDGREVVCHASAWDFYNGKDFRIKQCTTVNLEDLVVAHHEMGHIQYFMQYKDLPVALREGANPGFHEAIGDVLALSVSTPKHLHSLNLLSSEGGSDEHDINFLMKMALDKIAFIPFSYLVDQWRWRVFDGSITKENYNQEWWSLRLKYQGLCPPVPRTQGDFDPGAKFHIPSSVPYIRYFVSFIIQFQFHEALCQAAGHTGPLHKCDIYQSKEAGQRLATAMKLGFSRPWPEAMQLITGQPNMSASAMLSYFKPLLDWLRTENELHGEKLGWPQYNWTPNSARSEGPLPDSGRVSFLGLDLDAQQARVGQWLLLFLGIALLVATLGLSQRLFSIRHRSLHRHSHGPQFGSEVELRHS
Km: 0.18 µM
